Six molecules from US20250223378A1 (MABCARE THERAPEUTICS, published 2025) can be followed below.

Positions count from the first letter of the chain named.

In test [1] the target is T1, PTK7 on the SK-OV-3 cell line (human ovarian cancer cells) (human, UniProt Q13308 31-1070).
T1 construct: whole, on cells
T1 sequence (looked up): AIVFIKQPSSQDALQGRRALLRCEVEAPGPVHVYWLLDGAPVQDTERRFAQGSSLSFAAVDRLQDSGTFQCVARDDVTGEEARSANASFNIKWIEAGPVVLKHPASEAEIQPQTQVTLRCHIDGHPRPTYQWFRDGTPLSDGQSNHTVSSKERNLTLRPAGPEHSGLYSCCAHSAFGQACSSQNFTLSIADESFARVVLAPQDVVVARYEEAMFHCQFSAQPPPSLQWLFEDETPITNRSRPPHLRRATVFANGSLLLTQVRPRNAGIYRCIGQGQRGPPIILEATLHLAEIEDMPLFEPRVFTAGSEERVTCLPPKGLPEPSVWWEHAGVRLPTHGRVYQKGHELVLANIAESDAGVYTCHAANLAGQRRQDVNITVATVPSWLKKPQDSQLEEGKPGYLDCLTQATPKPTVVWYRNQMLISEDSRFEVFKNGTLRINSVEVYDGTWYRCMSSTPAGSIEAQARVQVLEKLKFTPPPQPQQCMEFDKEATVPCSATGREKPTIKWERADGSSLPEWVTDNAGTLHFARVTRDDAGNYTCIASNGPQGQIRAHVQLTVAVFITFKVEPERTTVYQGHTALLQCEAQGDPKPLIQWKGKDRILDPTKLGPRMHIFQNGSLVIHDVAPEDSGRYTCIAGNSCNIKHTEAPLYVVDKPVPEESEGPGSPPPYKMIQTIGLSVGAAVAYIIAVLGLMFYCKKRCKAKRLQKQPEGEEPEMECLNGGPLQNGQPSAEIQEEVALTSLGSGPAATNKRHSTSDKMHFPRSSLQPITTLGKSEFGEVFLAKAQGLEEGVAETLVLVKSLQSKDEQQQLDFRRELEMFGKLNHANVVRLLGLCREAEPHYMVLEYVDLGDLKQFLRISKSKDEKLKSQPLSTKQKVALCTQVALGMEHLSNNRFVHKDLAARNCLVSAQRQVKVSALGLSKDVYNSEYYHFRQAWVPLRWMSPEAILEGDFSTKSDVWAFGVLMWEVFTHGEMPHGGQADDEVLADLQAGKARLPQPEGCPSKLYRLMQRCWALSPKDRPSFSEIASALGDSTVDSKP
Kind of test: flow cytometry on SK-OV-3 cells, FITC goat anti-human secondary antibody, MFI. How it is done:
SK-OV-3 (human ovarian cancer cells, ATCC, Catalog No. HTB-77) was digested with trypsin in a culture dish, and the digested cells were centrifuged at 1000 rpm for 5 min and then blocked with 10% goat serum (purchased from Beijing Solarbio Science & Technology Co. Ltd., Item No. SL038) for 30 min. The anti-PTK7 antibodies as prepared in Example 2 of the present disclosure were diluted in a 3-fold gradient with a starting concentration of 500 nM. At the end of dilution, the gradient diluted anti-PTK7 antibodies were added to the cells, incubated for 1 h, and washed twice with PBS. Then, FITC-labeled goat anti-human secondary antibody (purchased from Jackson ImmunoResarch, Item No. 109-545-008) was added at 1:500, incubated for 1 h, and finally washed twice with PBS. The results were analyzed by flow cytometry.
(In general: In flow cytometry, cells or beads pass a laser one at a time.)

In test [2] the target is T2, Human PTK7 protein (Catalog No. PT7-H52H3, Acrobiosystems) (human, UniProt Q13308 31-704).
T2 construct: Bought protein
T2 sequence (looked up): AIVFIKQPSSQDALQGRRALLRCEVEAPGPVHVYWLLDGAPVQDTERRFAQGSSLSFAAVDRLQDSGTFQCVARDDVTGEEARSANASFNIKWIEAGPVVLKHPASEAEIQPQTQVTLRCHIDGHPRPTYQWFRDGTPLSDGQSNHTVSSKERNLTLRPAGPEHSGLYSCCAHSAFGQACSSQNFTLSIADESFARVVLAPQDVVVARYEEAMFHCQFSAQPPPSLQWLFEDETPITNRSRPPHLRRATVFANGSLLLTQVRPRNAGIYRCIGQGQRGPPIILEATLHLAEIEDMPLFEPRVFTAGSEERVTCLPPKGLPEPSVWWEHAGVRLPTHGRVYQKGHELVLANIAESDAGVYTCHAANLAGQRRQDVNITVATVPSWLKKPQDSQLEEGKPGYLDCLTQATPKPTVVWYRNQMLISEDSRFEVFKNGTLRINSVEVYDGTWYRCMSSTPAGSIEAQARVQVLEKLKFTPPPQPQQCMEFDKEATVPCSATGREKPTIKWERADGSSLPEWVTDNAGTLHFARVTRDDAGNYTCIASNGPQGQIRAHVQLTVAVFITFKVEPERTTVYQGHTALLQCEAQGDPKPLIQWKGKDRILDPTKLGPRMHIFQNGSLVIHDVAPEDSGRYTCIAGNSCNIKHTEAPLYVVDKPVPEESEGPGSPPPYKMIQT
Kind of test: ELISA, PTK7 protein immobilized on the plate, peroxidase anti-human IgG, OD450. How it is done:
(§1) Human PTK7 protein (Catalog No. PT7-H52H3, Acrobiosystems), monkey PTK7 protein (Catalog No. PT7-C52H3, Acrobiosystems), and murine PTK7 protein (Catalog No. PT7-M52H3, Acrobiosystems) were incubated at 4° C. overnight and immobilized onto a 96-well plate. The plate was then blocked by incubating at 37° C. with 1% BSA in PBS for 1 h. After blocking, the plate was washed 3 times with PBST (PBS containing 0.05% Tween 20). Serial dilutions of anti-PTK7 antibody as prepared in Example 2 of the present disclosure was prepared in a binding buffer (PBS containing 0.05% Tween20 and 0.5% BSA) and incubated with the immobilized proteins at 37° C. for 1 h. After binding, the plate was washed 3 times with PBST, incubated with peroxidase-labeled donkey anti-human IgG (Jackson ImmunoResearch) diluted at 1/15,000 in the binding buffer at 37° C. for 1 h, washed again, developed with TMB and terminated with 1M H₂SO₄. The absorbance at 450 nm-620 nm was measured.

For test [3], the target named is T3, murine PTK7 protein (Catalog No. PT7-M52H3, Acrobiosystems) (murine, UniProt Q8BKG3 23-696).
T3 construct: Bought protein; also called mouse PTK7
T3 sequence (looked up): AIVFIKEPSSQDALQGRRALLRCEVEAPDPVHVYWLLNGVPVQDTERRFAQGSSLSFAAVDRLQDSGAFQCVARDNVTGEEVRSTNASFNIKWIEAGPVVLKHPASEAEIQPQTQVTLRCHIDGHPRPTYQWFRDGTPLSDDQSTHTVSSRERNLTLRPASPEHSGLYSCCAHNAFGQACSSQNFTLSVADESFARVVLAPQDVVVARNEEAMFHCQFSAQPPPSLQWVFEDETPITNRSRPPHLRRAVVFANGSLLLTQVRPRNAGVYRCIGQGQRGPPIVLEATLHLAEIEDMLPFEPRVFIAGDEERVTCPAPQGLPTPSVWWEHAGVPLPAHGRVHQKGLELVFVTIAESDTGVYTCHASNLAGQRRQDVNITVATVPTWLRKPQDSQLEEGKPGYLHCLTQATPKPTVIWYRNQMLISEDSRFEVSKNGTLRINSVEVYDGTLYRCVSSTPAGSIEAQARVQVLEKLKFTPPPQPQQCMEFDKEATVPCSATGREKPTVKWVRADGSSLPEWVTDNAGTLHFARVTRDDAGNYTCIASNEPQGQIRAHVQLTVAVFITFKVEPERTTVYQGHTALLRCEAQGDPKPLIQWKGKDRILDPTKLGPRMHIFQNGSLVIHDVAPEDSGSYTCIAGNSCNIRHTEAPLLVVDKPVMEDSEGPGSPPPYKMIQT
The test is described as above. How it is done:
as §1

For test [4], the target named is T4, monkey PTK7 protein (Catalog No. PT7-C52H3, Acrobiosystems) (monkey, UniProt A0A2K5VNQ6 31-704).
T4 construct: Bought protein; not shown: The vendor's purification tag, probably a C-terminal His tag
T4 sequence: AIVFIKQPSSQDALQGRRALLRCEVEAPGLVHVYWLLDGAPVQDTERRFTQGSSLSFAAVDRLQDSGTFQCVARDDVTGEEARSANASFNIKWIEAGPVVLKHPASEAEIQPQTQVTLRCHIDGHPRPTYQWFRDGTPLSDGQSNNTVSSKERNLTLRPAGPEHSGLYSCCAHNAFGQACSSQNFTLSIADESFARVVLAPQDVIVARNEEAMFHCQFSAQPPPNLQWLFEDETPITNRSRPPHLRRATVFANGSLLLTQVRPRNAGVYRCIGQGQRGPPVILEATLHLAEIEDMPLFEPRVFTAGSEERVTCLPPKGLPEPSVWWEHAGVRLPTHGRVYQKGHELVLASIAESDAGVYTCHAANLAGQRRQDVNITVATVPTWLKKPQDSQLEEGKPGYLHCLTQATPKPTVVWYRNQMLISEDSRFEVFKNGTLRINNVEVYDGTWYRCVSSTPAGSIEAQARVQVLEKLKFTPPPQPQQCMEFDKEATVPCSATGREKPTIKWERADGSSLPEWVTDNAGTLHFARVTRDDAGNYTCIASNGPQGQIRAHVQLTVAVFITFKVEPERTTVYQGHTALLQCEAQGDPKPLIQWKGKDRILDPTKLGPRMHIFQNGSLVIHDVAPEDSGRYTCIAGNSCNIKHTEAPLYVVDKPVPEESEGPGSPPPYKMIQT
Described as above. How it is done:
as §1

B1: humanized PTK7 antibody Hu13H3L3 (antibody, V domains shown)
VH: QVQLVQSGAEVKKPGASVKISCKGSGYTFTDYGMHWLKQAPGQGLEWIGVISPYYGDVNYNQKFQGRATMTVDKSISTAYMELSRLRSDDTAVYYCARGMGYWGQGTLVTVSS
VL: DVQITQSPSFLSASVGDRVTITCRASQSISKYLAWYQQKPGKAPKLLIYSGSTLQSGVPSRFSGSGSGTEFTLTISSLQPEDFAMYYCQQHNEYPWTFGQGTKVEIK
The term EC50 denotes the concentration that produces a half-maximal response. In test [1], B1 registered an EC50 of 156 pM.

B2: humanized PTK7 antibody Hu13H2L3 (antibody, V domains shown)
VH: B1 VH with I20V, K38R, I48M, A68V, V72R, A92V
VL: B1 VL
As for B2, the 50% effective concentration (EC50) in test [1] came out at 213 pM.

B3: humanized PTK7 antibody Hu13H2L0 (antibody, V domains shown)
VH: B1 VH with I20V, K38R, I48M, A68V, V72R, A92V
VL: B1 VL with V2I, I4L, M85T
B3 returned an EC50 in test [1] of 163 pM.

B4: humanized PTK7 antibody Hu13H3L5 (antibody, V domains shown)
VH: B1 VH
VL: B1 VL with F10Y, V15P, V19I, P44N
In turn, B4 had a 50% effective concentration (EC50) in test [1] of 161 pM.

B5: humanized PTK7 antibody Hu13H3L0 (Ab13) (antibody, V domains shown)
VH: B1 VH
VL: B1 VL with V2I, I4L, M85T
With B5, the EC50 in test [1] was found to be 190 pM.

B6: human-murine chimeric PTK7 antibody ch13 (antibody, V domains shown)
VH: QVQLQQSGAELVRPGVSVKISCKGSGYTFTDYGMHWLKQSHAKSLEWIGVISPYYGDVTYNQKFKGKATMTVDKSSSTAYMELARLTSEDSAIYYCARGMGYWGQGTSVTVSS
VL: DVQITQSPSYLAASPGETITINCRASQSISKYLAWYQEKPGKTNKLLIYSGSTLQSGIPSRFSGSGSGTDFTLTISSLEPEDFAMYYCQQHNEYPWTFGGGTKLEIK
B6: the half-maximal effective concentration (EC50) in test [2] was found to be 57.1 pM; in test [4], 47.2 pM; in test [1], 189 pM. In addition, the binding result in test [3] is on record as “no binding”.
